Measured values as given in paper PMC9009768 (PLoS Pathogens, 2022).

Biological target: T1, His-tagged PIAS1 (human, UniProt O75925 1-651)
T1 construct: also called His-PIAS1; purified PIAS1
Experiment: pull-down
Conditions: both partners purified

T1 sequence (O75925 whole entry): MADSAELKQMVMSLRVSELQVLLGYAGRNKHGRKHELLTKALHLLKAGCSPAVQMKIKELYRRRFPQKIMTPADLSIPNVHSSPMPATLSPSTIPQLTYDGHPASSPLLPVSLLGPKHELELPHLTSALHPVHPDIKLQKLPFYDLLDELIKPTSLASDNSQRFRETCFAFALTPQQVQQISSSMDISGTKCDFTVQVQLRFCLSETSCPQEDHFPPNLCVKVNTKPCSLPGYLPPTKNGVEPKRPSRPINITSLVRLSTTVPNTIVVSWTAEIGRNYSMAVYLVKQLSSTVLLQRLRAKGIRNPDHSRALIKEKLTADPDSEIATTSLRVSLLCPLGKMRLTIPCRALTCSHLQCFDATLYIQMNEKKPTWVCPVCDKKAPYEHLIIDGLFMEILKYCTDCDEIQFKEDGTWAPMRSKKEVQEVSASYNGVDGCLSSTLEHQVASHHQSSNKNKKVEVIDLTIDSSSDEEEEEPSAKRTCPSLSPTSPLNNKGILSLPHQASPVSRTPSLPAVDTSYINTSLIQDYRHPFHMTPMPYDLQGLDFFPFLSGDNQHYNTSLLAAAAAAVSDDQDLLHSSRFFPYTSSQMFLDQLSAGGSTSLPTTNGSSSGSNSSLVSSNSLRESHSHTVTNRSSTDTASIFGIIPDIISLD

B1: GST-WSNNP (natural protein)
chain: MATKGTKRSYEQMETDGERQNATEIRASVGKMIGGIGRFYIQMCTELKLSDYEGRLIQNSLTIERMVLSAFDERRNKYLEEHPSAGKDPKKTGGPIYRRVDGKWMRELILYDKEEIRRIWRQANNGDDATAGLTHMMIWHSNLNDATYQRTRALVRTGMDPRMCSLMQGSTLPRRSGAAGAAVKGVGTMVMELIRMIKRGINDRNFWRGENGRRTRIAYERMCNILKGKFQTAAQRAMVDQVRESRNPGNAEFEDLIFLARSALILRGSVAHKSCLPACVYGPAVASGYDFEREGYSLVGIDPFRLLQNSQVYSLIRPNENPAHKSQLVWMACHSAAFEDLRVSSFIRGTKVVPRGKLSTRGVQIASNENMETMESSTLELRSRYWAIRTRSGGNTNQQRASSGQISIQPTFSVQRNLPFDRPTIMAAFTGNTEGRTSDMRTEIIRLMESARPEDVSFQGRGVFELSDEKAASPIVPSFDMSNEGSYFFGDNAEEYDN
Question: Does B1 bind?
Answer: Result: binds
